What was measured:
KOR = KOR (Homo sapiens, UniProt P41145); assay: Receptor cell surface level of KOR by HiBiT technology; type: cell-based; set-up: expressed in transfected cells; host or cells: U87 cells, transient, PEI; conditions: bafilomycin A1 1.5 μM, 180-minute stimulation
Experimental: 1.14 Monitoring of Opioid Peptide-Induced Changes in Receptor Cell Surface Levels
Determination of receptor surface expression level by NanoLuc complementation assay was performed using the Nano-Glo HiBiT extracellular detection system (Promega) according to manufacturer's protocol. […] Cells were then incubated with HiBiT extracellular reagent, consisting of Nanoluciferase extracellular substrate and LgBiT protein in HiBiT buffer. Light emission from complementation of LgBiT protein with remaining surface receptor-fused HiBiT was determined on a Mithras LB940 plate reader (Berthold Technologies). Signal was normalised to the measurement recorded at t=1 min. Noteworthy the impact of nociceptin and derivatives could not be determined in this assay due to significant LgBiT protein cross-complementation by nociceptin. Where indicated, cells were treated with bafilomycin A1 (1.5 μM in 0.15% DMSO) (Santa Cruz Biotechnology) or 0.15% DMSO for 45 minutes prior ligand stimulation and during ligand stimulation (180 minutes).

ACKR3 [1] = target: T1, ACKR3 (Homo sapiens, UniProt P25106); assay: Opioid peptide library screening: β-arrestin-2 recruitment to ACKR3 in U87 cells; type: cell-based; set-up: expressed in transfected cells; host or cells: U87 cells, transient co-transfection of pNBe vectors; conditions: 5 μM
Experimental: (§1) In brief, 1.2×10^6 U87 cells were plated in 10 cm-culture dishes and 48 hours later co-transfected with pNBe vectors encoding GPCRs C-terminally tagged to SmBiT and human β-arrestin-1 or -2 or mini G proteins (mG, engineered GTPase domains of Gα subunits,) N-terminally fused to LgBiT. 48 hours post-transfection cells were harvested, incubated 25 minutes at 37° C. with Nano-Glo Live Cell substrate diluted 200-fold and distributed into white 96-well plates (5×10^4 cells per well). Ligand-induced, β-arrestin and mG recruitment to GPCRs was evaluated with a Mithras LB940 luminometer (Berthold Technologies) for 20 minutes. For concentration-response curves, the signal recorded with a saturating concentration of full agonist for each receptor was set as 100%.
Target sequence in this assay (P25106 whole entry, the tested form may be a part): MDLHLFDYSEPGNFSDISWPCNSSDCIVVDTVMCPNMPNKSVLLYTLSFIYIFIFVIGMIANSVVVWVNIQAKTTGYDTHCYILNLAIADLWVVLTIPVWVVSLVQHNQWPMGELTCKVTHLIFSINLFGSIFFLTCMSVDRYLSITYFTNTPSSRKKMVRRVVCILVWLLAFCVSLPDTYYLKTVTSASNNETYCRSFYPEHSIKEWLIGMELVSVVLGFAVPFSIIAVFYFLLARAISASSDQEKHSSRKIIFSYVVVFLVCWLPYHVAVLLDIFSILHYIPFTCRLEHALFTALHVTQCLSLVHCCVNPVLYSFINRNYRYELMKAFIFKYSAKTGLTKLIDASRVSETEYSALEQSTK
Target sequence in this assay (P32121 whole entry partner, the tested form may be a part): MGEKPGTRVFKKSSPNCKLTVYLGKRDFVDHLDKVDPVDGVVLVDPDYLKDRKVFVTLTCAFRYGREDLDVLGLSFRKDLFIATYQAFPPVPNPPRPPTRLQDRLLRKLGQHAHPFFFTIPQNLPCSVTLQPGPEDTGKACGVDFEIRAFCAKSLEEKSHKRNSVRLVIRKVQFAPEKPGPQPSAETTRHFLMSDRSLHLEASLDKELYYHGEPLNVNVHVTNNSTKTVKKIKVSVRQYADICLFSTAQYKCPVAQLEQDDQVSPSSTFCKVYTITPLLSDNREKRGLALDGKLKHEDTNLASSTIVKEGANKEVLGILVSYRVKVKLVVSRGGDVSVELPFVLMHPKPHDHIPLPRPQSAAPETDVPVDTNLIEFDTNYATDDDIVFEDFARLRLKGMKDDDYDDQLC

ACKR3 [2] = assay: B-arrestin-1 | ACKR3 | EC50 (nM)
Source text: Table printed on a drawing sheet, FIG. 1 (continued) H
Head of the field: B-arrestin-1 | ACKR3 | EC50 (nM)
The patent's description of the figure: FIG. 1 Opioid peptide library screening on ACKR3, hit confirmation and comparison with classical opioid receptors. (A) The ability of 58 compounds, including natural opioid peptides from the four opioid families, variants thereof and small molecule opioid receptor modulators, to induce β-arrestin-2 recruitment to ACKR3, CXCR4 and CXCR3 in U87 cells at a concentration of 5 μM. Positive control chemokines were used at a concentration of 300 nM. Results are expressed as fold change over vehicle-treated cells and presented as mean±S.D of two replicates (B-F) Comparison of potency and efficacy of ACKR3-activating peptides in inducing β-arrestin-1 recruitment to the opioid receptors MOR (B), DOR (C), KOR (D), NOP (E) and ACKR3 (F) in U87 cells. Results are expressed as percentage of indicated agonist response. […] Results from B—H are presented as mean±S.E.M (n ? 3).
Where the first naming reader finds the target: head: B-arrestin-1 | ACKR3 | EC50 (nM)

CXCR4 [3] = target: T2, CXCR4 (Homo sapiens, UniProt P61073); assay: Dynamic mass redistribution (DMR), U87 cells expressing CXCR4; type: cell-based; conditions: 200 nM
T2 construct: expressed in transfected cells; pcDNA3.1 transient for DMR
Experimental: 1.5. Label-Free Dynamic Mass Redistribution (DMR) Assay
Dynamic mass redistribution (DMR) experiments were conducted using the Corning Epic (Corning) biosensor system as previously described in Schröder, R. et al. Deconvolution of complex G protein-coupled receptor signaling in live cells using dynamic mass redistribution measurements. Nat Biotechnol 28, 943-949 (2010) and Schröder, R. et al. Applying label-free dynamic mass redistribution technology to frame signaling of G protein-coupled receptors noninvasively in living cells. Nat Protoc. 6(11): 1748-1760 (2011). In brief, 6×10^5 U87 cells were seeded in 6-cm dishes. 24 hours later cells were transfected with pcDNA3.1-based expression plasmids coding for the respective chemokine (ACKR3, CXCR4) or opioid (KOR, NOP) receptors using polyethylenimine (PEI) reagent (Polysciences). 24 hours after transfection 1×10^4 cells per well were transferred to a 384-well Epic biosensor plate and incubated (37° C., 5% CO2) overnight. Cells were then washed twice with Hanks' balanced salt solution (HBSS) (Life Technologies) containing 20 mM HEPES (Life Technologies) and subsequently incubated in the DMR-reader for 1.5 hours to achieve temperature equilibration (37° C.). […] Alterations of ligand-induced DMR were monitored for at least 3000 seconds. Raw data were processed and analysed using GraphPad Prism 7.05 (GraphPad Inc).

CXCR4 [4] = target: T2, CXCR4; assay: HTRF ERK1/2 phosphorylation, U87 cells stably expressing CXCR4; type: cell-based; conditions: between 2 and 120 minutes after stimulation
Experimental: 1.6 Homogeneous Time-Resolved Fluorescence (HTRF)-Based Extracellular Signal Regulated Kinases 1 and 2 (ERK1/2) Phosphorylation Assays
Homogeneous Time-Resolved Fluorescence (HTRF)-based phospho-ERK1/2 and total-ERK1/2 assays were performed using phospho-ERK1/2 (Thr202/Tyr204) and total-ERK1/2 cellular kits (Cisbio International). In short, for quantification of total and phosphorylated ERK1/2 protein, U87 cells stably expressing (or not) ACKR3 or CXCR4 were seeded at a density of 3.5×10^4 cells per well into 96-well poly-D-lysine (PDL)-coated microtiter plates (Sigma-Aldrich). After overnight incubation, cells were starved for 4 hours at 37° C. in serum-free medium. Cells were then stimulated for the indicated time intervals with chemokine or opioid ligands, respectively, before termination by replacement of supernatants with lysis buffer followed by 1.5 hours incubation on an orbital shaker. […] D2-labeled anti-total-ERK1/2 and Eu^3+-Cryptate-labelled anti-total-ERK1/2 antibodies were added for quantification of total-ERK1/2 abundance. Following an incubation time of at least 2 hours (phospho-ERK1/2) or 24 hours (total-ERK1/2), time-resolved FRET signals were measured using the Mithras LB 940 multimode reader (Berthold Technologies) equipped with 320 nm excitation filter and 620 nm (donor) and 665 nm (acceptor) emission filters.

[5] = target: T3, native or CXCR4-expressing U87 cells (Homo sapiens, UniProt P61073); assay: Binding of fluorescently labelled LIH383 to native or CXCR4-expressing cells
T3 construct: expressed in transfected cells; pcDNA3.1 transient for DMR

CXCR3 = assay: β-arrestin recruitment to CXCR3 (NanoBiT); type: cell-based, human; conditions: saturating concentration (3 μM)
Experimental: as §1

ACKR3 [6] = target: T1, ACKR3; type: cell-based; set-up: expressed in transfected cells; host or cells: U87 cells, transient co-transfection of pNBe vectors; conditions: U87 cells
Target sequence in this assay (P25106 whole entry, the tested form may be a part): as the sequence (P25106 whole entry, the tested form may be a part) above
Target sequence in this assay (P49407 whole entry partner, the tested form may be a part): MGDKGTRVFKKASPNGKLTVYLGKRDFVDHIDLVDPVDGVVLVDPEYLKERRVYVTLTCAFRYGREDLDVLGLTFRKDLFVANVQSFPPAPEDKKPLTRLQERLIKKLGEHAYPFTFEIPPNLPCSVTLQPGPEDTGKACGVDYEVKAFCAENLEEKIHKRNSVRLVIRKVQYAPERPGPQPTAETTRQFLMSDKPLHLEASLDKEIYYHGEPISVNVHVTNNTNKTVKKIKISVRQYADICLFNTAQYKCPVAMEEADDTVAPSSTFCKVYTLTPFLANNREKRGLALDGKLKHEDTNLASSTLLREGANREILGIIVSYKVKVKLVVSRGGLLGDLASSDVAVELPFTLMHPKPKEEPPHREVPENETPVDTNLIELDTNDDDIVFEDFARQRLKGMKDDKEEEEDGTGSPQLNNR

CCR3 = target: T4, CCR3 (Homo sapiens, UniProt P51677); assay: β-arrestin recruitment to CCR3 (NanoBiT); type: cell-based; conditions: saturating concentration (3 μM)
T4 construct: expressed in transfected cells; host or cells: U87 cells, transient co-transfection of pNBe vectors
T4 sequence (P51677 1-355): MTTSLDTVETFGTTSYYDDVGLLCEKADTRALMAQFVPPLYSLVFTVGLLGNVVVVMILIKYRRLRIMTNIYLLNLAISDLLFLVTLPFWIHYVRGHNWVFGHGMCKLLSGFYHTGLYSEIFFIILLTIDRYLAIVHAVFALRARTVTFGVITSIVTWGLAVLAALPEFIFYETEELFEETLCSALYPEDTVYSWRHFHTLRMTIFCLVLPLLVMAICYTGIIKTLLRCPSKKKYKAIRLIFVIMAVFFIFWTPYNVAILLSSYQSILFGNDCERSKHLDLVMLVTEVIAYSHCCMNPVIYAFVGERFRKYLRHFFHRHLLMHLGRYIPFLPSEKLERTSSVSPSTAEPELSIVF
Experimental: as §1

CX3CR1 = target: T5, CX3CR1 (Homo sapiens, UniProt P49238); assay: β-arrestin recruitment to CX3CR1 (NanoBiT); type: cell-based; conditions: saturating concentration (3 μM)
T5 construct: expressed in transfected cells; host or cells: U87 cells, transient co-transfection of pNBe vectors
T5 sequence (P49238 1-355): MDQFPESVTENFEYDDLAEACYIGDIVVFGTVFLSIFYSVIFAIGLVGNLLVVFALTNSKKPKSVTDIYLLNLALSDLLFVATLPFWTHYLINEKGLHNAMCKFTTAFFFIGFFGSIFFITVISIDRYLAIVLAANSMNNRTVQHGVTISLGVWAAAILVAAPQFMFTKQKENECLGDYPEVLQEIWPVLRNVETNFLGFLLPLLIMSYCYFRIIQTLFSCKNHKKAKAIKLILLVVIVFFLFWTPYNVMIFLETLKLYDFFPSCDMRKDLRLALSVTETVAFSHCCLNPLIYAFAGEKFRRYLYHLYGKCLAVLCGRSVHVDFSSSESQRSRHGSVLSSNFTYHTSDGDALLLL
Experimental: as §1

T2 sequence (P61073 whole entry): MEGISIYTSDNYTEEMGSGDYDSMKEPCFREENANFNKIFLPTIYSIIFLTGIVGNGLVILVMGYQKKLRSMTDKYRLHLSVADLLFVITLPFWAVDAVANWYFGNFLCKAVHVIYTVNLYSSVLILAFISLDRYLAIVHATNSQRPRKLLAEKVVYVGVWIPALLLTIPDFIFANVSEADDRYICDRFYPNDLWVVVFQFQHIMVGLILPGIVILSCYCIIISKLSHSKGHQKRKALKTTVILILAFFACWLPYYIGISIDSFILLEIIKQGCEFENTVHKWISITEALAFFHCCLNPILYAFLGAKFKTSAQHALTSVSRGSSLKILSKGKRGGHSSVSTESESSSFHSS
Chain of KOR (P41145 whole entry): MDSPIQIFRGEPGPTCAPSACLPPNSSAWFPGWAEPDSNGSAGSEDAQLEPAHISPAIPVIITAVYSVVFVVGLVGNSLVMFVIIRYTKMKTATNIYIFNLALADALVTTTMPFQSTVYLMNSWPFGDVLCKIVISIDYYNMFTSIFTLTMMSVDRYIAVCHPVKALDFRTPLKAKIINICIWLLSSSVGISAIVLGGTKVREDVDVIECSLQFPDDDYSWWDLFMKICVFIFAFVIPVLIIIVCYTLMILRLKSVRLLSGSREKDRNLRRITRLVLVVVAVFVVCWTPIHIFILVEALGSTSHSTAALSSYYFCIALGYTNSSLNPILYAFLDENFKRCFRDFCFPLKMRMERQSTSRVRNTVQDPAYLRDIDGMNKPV
Chain of CXCR3 (P49682 5-368 limits assumed): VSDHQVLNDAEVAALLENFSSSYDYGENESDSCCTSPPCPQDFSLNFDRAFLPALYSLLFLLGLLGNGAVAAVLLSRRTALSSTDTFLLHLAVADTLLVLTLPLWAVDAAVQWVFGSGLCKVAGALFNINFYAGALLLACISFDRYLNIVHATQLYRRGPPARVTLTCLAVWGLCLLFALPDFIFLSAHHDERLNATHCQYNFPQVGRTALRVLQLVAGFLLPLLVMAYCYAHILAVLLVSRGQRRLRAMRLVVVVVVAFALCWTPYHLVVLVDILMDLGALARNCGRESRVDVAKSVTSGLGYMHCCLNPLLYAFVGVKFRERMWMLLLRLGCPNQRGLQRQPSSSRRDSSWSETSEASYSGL
T3 sequence (P61073 whole entry): as the sequence (P61073 whole entry) above

CO/C1=C\C(C)=C\[C@@H](C)[C@@H](O)[C@@H](C)C/C(C)=C/C=C/[C@H](OC)[C@@H]([C@@H](C)[C@@H](O)[C@H](C)[C@@]2(O)C[C@@H](O)[C@H](C)[C@@H](C(C)C)O2)OC1=O [bafilomycin A1]
surface levels of KOR following stimulation with opioid peptides (KOR): no effect on surface levels of KOR

BAM18: opioid peptide previously reported as ACKR3 ligand (YGGFMRRVGRPEWWMDYQ)
ability to induce β-arrestin-2 recruitment to ACKR3 (library screening) (ACKR3 [1]): capable of inducing β-arrestin-2 recruitment to ACKR3

BAM22: proenkephalin-derived opioid peptide
EC50 (ACKR3 [2]): 23.5 nM

CXCL12: C—X—C motif chemokine 12, endogenous ACKR3 chemokine ligand
DMR response of CXCR4-expressing U87 cells (CXCR4 [3]): strong DMR | ERK phosphorylation, cells stably expressing CXCR4 (CXCR4 [4]): strong increase in ERK phosphorylation

Cy-5-labelled LIH383: fluorescently labelled LIH383 (LIH383-Cy5)
binding to native or CXCR4-expressing U87 cells [5]: not to native or CXCR4-expressing U87 cells

big dynorphin: the precursor of dynorphin A and B
β-arrestin recruitment to CXCR3 (CXCR3): faint induction of β-arrestin recruitment | β-arrestin recruitment to ACKR3: agonist activity/potency in words (ACKR3 [6]): at low concentrations comparable to their activity on the classical opioid receptors | β-arrestin recruitment to CCR3 (CCR3): faint induction of β-arrestin recruitment | β-arrestin recruitment to CX3CR1 (CX3CR1): faint induction of β-arrestin recruitment

Reference: patent US12578343B2, “Selective ACKR3 modulators and uses thereof” (Luxembourg Institute of Health (LIH), priority 2019, dated 2026)
